Measurements from patent US20090202619A1, “POLYOXYALKYLENE CHAIN-CONTAINING LIPID DERIVATIVE AND LIPID FILM STRUCTURE CONTAINING SUCH DERIVATIVE” (THE UNIVERSITY OF TOKUSHIMA, priority 2005, published 2009).

Parameters: species or system male ddY mouse
Conditions: mouse, in vivo, iv
Description: Using the methylpolyoxyethylenecarbamyl-glycyl-glycyl-glycyl-distearoylphosphadylethanolamine (DSPE-GGG-PEG2000) obtained in Example 5 or the methylpolyoxyethylenecarbamyl-distearoylphosphadylethanolamine (DSPE-PEG2000), egg yolk phosphatidylcholine (EPC) or hydrogenated egg yolk phosphatidylcholine (HEPC), and cholesterol, a composition in the blending ratios shown in Table 2 below was weighed in an egg plant flask, and the liposome solutions of Example 9 and Comparative Examples 4 to 5 were obtained by the same method as (1) above but using doxorubicin in place of the fluorescent dye. To monitor the blood kinetics of the liposome per se, 40 μCi/μmol ^3H-cholesterylhexadecyl ether (^3H-CHE) was added. […]
Next, each liposome was administered to a male ddY mouse from the tail vein (25 mg lipid/kg), blood was collected 2 minutes, 30 minutes, 1 hour, 2 hours, 4 hours, 8 hours, and 24 hours after the administration, the radioactivity in blood was measured to determine the concentration of the liposome per se, and doxorubicin was measured by the fluorescence method to determine the doxorubicin concentration at that time point. Because the doxorubicin that has leaked from the liposome is quickly distributed in various tissues, doxorubicin concentrations determined by this method are considered to reflect the amount of doxorubicin retained in the liposome.

methylpolyoxyethylenecarbamyl-glycyl-glycyl-glycyl-distearoylphosphadylethanolamine [Example 4]
cleavage of the lipid derivative in blood: minimally cleaved in blood | influence on the drug-releasing characteristics of liposome: did not influence the drug-releasing characteristics of liposome
